From paper PMC5482573 (eLife, 2017) come the findings set out here.

First the molecules themselves.
T1: α-COP (M. musculus, in recombinant coatomer) (M. musculus, UniProt Q8CIE6 1-1224)
T1 construct: alpha-COP, coatomer subunit alpha, M. musculus; Stood in the assays as a subunit of the whole heptameric coatomer; source: SF9 insect cells (baculovirus), as part of recombinant coatomer, purified
T1 sequence: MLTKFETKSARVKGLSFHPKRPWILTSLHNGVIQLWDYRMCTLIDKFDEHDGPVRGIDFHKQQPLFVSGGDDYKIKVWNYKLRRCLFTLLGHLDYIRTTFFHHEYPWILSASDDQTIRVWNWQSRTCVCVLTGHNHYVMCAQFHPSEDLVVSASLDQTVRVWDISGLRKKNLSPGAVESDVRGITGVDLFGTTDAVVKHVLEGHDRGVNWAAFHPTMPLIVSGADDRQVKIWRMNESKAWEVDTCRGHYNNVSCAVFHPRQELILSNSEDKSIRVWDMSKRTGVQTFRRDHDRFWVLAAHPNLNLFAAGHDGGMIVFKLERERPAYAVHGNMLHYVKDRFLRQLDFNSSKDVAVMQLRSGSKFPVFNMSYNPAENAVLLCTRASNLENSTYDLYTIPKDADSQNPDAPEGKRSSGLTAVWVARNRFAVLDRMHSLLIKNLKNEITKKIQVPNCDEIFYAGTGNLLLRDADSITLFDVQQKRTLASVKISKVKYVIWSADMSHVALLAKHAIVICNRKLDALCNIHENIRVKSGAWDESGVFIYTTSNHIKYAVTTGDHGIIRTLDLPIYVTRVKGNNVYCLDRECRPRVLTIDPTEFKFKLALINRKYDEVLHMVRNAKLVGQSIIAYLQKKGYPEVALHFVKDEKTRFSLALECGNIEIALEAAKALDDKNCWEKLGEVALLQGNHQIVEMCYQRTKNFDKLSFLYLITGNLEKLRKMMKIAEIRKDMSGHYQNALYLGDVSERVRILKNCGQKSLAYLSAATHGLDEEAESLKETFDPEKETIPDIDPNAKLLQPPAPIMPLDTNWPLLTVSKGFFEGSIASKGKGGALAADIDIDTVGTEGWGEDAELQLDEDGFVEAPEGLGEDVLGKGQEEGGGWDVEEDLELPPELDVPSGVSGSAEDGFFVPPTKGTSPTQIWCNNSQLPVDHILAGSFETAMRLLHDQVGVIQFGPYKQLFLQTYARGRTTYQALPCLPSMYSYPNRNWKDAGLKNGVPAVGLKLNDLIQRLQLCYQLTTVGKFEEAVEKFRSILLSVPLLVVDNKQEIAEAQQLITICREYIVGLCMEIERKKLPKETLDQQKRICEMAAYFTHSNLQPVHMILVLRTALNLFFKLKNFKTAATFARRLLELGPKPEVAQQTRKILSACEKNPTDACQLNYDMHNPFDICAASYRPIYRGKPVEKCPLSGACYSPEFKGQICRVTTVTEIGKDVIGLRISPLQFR

B1: S. cerevisiae myristoylated Arf1 (natural protein)
chain: MGLFASKLFSNLFGNKEMRILMVGLDGAGKTTVLYKLKLGEVITTIPTIGFNVETVQYKNISFTVWDVGGQDRIRSLWRHYYRNTEGVIFVVDSNDRSRIGEAREVMQRMLNEDELRNAAWLVFANKQDLPEAMSAAEITEKLGLHSIRNRPWFIQATCATSGEGLYEGLEWLSNSLKNST
modifications: myristoylated
notes: Arf1 (ADP-ribosylation factor 1), S. cerevisiae, loaded with GTPγS on membranes; also called γArf1 (central); βArf1 (peripheral); source: E. coli, purified
B2: β’-COP (M. musculus, in recombinant coatomer) (natural protein)
chain: MPLRLDIKRKLTARSDRVKSVDLHPTEPWMLASLYNGSVCVWNHETQTLVKTFEVCDLPVRAAKFVARKNWVVTGADDMQIRVFNYNTLERVHMFEAHSDYIRCIAVHPTQPFILTSSDDMLIKLWDWDKKWSCSQVFEGHTHYVMQIVINPKDNNQFASASLDRTIKVWQLGSSSPNFTLEGHEKGVNCIDYYSGGDKPYLISGADDRLVKIWDYQNKTCVQTLEGHAQNVSCASFHPELPIIITGSEDGTVRIWHSSTYRLESTLNYGMERVWCVASLRGSNNVALGYDEGSIIVKLGREEPAMSMDANGKIIWAKHSEVQQANLKAMGDTEIKDGERLPLAVKDMGSCEIYPQTIQHNPNGRFVVVCGDGEYIIYTAMALRNKSFGSAQEFAWAHDSSEYAIRESNSIVKIFKNFKEKKSFKPDFGAESIYGGFLLGVRSVNGLAFYDWENTELIRRIEIQPKHIFWSDSGELVCIATEESFFILKYLSEKVLAAQETHEGVTEDGIEDAFEVLGEIQEIVKTGLWVGDCFIYTSSVNRLNYYVGGEIVTIAHLDRTMYLLGYIPKDNRLYLGDKELNIVSYSLLVSVLEYQTAVMRRDFSMADKVLPTIPKEQRTRVAHFLEKQGFKQQALTVSTDPEHRFELALQLGELKIAYQLAVEAESEQKWKQLAELAISKCQFSLAQECLHHAQDYGGLLLLATASGNASMVNKLAEGAERDGKNNVAFMSYFLQGKLDACLELLIRTGRLPEAAFLARTYLPSQVSRVVKLWRENLSKVNQKAAESLADPTEYENLFPGLKEAFVVEEWVKETHADLWPAKQYPLVTPNEERNVMEEAKGFQPSRPTAQQEPDGKPASSPVIMASQTTHKEEKSLLELEVDLDNLELEDIDTTDINLDEDILDD
notes: beta'-COP, coatomer subunit beta', M. musculus; Stood in the assays as a subunit of the whole heptameric coatomer; source: SF9 insect cells (baculovirus), as part of recombinant coatomer, purified
B3: β-COP (M. musculus, in recombinant coatomer) (natural protein)
chain: MTAAENVCYTLINVPMDSEPPSEISLKNDLEKGDVKSKTEALKKVIIMILNGEKLPGLLMTIIRFVLPLQDHTIKKLLLVFWEIVPKTTPDGRLLHEMILVCDAYRKDLQHPNEFIRGSTLRFLCKLKEAELLEPLMPAIRACLEHRHSYVRRNAVLAIYTIYRNFEHLIPDAPELIHDFLVNEKDASCKRNAFMMLIHADQDRALDYLSTCIDQVQTFGDILQLVIVELIYKVCHANPSERARFIRCIYNLLQSSSPAVKYEAAGTLVTLSSAPTAIKAAAQCYIDLIIKESDNNVKLIVLDRLVELKEHPAHERVLQDLVMDILRVLSTPDLEVRKKTLQLALDLVSSRNVEELVIVLKKEVIKTNNVSEHEDTDKYRQLLVRTLHSCSVRFPDMAANVIPVLMEFLSDSNEAAAADVLEFVREAIQRFDNLRMLIVEKMLEVFHAIKSVKIYRGALWILGEYCSTKEDIQSVMTEVRRSLGEIPIVESEIKKEAGELKPEEEITVGPVQKLVTEMGTYATQSALSSSRPTKKEEDRPPLRGFLLDGDFFVAASLATTLTKIALRYVALVQEKKKQNSFVAEAMLLMATILHLGKSSLPKKPITDDDVDRISLCLKVLSECSPLMNDIFNKECRQSLSQMLSAKLEEEKLSQKKESEKRNVTVQPDDPISFMQLTAKNEMNCKEDQFQLSLLAAMGNTQRKEAADPLASKLNKVTQLTGFSDPVYAEAYVHVNQYDIVLDVLVVNQTSDTLQNCTLELATLGDLKLVEKPSPLTLAPHDFANIKANVKVASTENGIIFGNIVYDVSGAASDRNCVVLSDIHIDIMDYIQPATCTDAEFRQMWAEFEWENKVTVNTNMTDLNDYLQHILKSTNMKCLTPEKALSGYCGFMAANLYARSIFGEDALANVSIEKPVHQGPDAAVTGHIRIRAKSQGMALSLGDKINLSQKKTSL
notes: beta-COP, coatomer subunit beta, M. musculus. numbers count on: the construct with its N-terminal His-tag, shifted by 15 residues relative to Q9JIF7; Stood in the assays as a subunit of the whole heptameric coatomer; The coatomer of the photo-cross-linking is called only 'coatomer'; source: SF9 insect cells (baculovirus), as part of recombinant coatomer, purified
B4: R. norvegicus ArfGAP2, full-length, N-terminally His-tagged (enzyme)
chain: not shown
notes: PDB 2P57 was fitted for it; source: insect cells, purified (Ni-NTA, gel filtration)

Common to all, as to conditions: both partners purified
The target of assay [1] is B3. In words: cryo-EM structure; cryo-electron tomography and subtomogram averaging of the COPI leaf, 9.2 Å; coat assembled in vitro from coatomer (840 nM), Arf1 (2 μM), GTPγS, ARNO and GUVs, 37°C, 50 mM HEPES pH 7.4, 50 mM KOAc, 1 mM MgCl2.
In assay [2] the target is B4. Nature of the assay: cryo-EM structure; COPI coated vesicles with GTPγS incubated 15–20 min with a 10 molar excess of ArfGAP2; subtomogram averaging, difference map and classification; class with ArfGAP2 at 10.1 Å.
Assay [3] addresses T1, α-COP (M. musculus, in recombinant …). Nature of the assay: cryo-EM structure; cryo-electron tomography and subtomogram averaging of the COPI leaf, 9.2 Å; coat assembled in vitro from coatomer (840 nM), Arf1 (2 μM), GTPγS, ARNO and GUVs, 37°C, 50 mM HEPES pH 7.4, 50 mM KOAc, 1 mM MgCl2.
Assay [4] has as its target B3. Nature of the assay: cryo-EM structure; COPI coated vesicles with GTPγS incubated 15–20 min with a 10 molar excess of ArfGAP2; subtomogram averaging, difference map and classification; class with ArfGAP2 at 10.1 Å.
Assay [5] addresses B2. The description is as above.

For B1, the binding result in assay [1] and in assay [2] was “binds” throughout. B2: the binding result in assay [3] and in assay [1] was “binds” throughout. Consider B3, for which the binding result in assay [3] is recorded as “binds”. Turning to B4, the binding result in assay [4] and in assay [5] was “binds” each time.
